Measurements as given in PMC4267655, “Brr2p carboxy-terminal Sec63 domain modulates Prp16 splicing RNA helicase” (Nucleic Acids Research, 2014).
Changes are numbered by the printed parent chain. Numbers in names are those of the source.

B1: m21; m1 Prp16p:R456K; Prp16p:G691R; Brr2 H2-Sec63-2:R1899G (protein)
chain: MGHSGREERIKDIFKELTSKELTPGLLLTLQKLAQKPNTNLEQFIASCKALTKLSSNNPIIFNELLELLKNKSEEDSTGPKKIAPSINKRKKFKIQLDLDDNEDELDSPVQKKPAPTRTLFKRIDKLKAKQLRQYSPTVKDPSPNSEQQTQNGHAETKDYEPTRSEVVEEDREWYDNDDDYGNLVPEPLSELPEEAKLLPVIRNIDNDDALRNTVQLYPIPLKQRMEWIPPFLSKFALENKVPTSIIIGSISETSSQVSALSMVNPFRNPDSEFSANAKRGSKLVALRRINMEHIQQSRDNTTVLNTAMGEVLGLENNNKAKDKSNQKICDDTALFTPSKDDIKHTKEQLPVFRCRSQLLSLIRENQVVVIIGETGSGKTTQLAQYLYEEGYANDRGKSIVVTQPRRVAAISVAKRVAMEMQVPLGKEVGYSIRFEDVTDSECTKLKFVTDGILLKETLLDDTLDKYSCVIIDEAHERSLNTDILLGFFKILLARRRDLKLIITSATMNAKKFSAFFGNAPQFTIPGRTFPVQTIYTSNPVQDYVEAAVSQAVKIHLANDCSSGDILIFMTGQEDIETTFDTLQEKFLQVYSKKFGTANFEEINDIEILPIYSALPADLQFKIFQDLHGTKRKIIIATNIAETSLTIKGIRYVIDCGYSKLKVYNPKIGLDSLVITPISKANADQRSGRARRTAPGTAYRLYTEDTFKEDMYLQTIPEIQRTNLSNTLLLLKSLDVTDELSKFPFIDKPPLQTFLSSLYELWFIGAIDTSGQLTPLGLQMAKFPLQPSLSKILLIAVRNGCSDEMLTIVSMLSVPQVFYRPKERQKEADIARNKFFIAKSDHLTLLNVFEQWRANNFSSHWCNKHFVQYKSLVRARDIRDQLLTILKSQKIPVISSGKDWDIIKKCICSGFAHQAAKITGLRNYVHLKTGVSVQLHPTSALHGLGDLPPYVVYHELLMTSKEYICCVTSVDPFWLMEYGGLLYDIKRIKNDQEATTTGLFGEHYEHTLDKVEDDIDINIRRCKDMRDSVIQELKMTDNSNKEDKKQKTKKQNILNGKENSMKPFKRRKPFF
B2: m21; m1 Prp16p:R456K; Prp16p:G691R; Brr2 H2-Sec63-2:L1951P (protein)
chain: B1 chain
B3: m21; m1 Prp16p:R686I; Brr2 H2-Sec63-2:R1899G (protein)
chain: B1 chain with K456R, R686I, R691G
B4: m21; m1 Prp16p:R686Q; Brr2 H2-Sec63-2:R1899G (protein)
chain: B1 chain with K456R, R686Q, R691G
B5: m21; m1 Prp16p:R686Q; Brr2 H2-Sec63-2:L1951P (protein)
chain: B1 chain with K456R, R686Q, R691G
B6: m21; m1 Prp16p:Q685H; Brr2 H2-Sec63-2:L1951P (protein)
chain: B1 chain with K456R, Q685H, R691G
B7: m21; m1 Prp16p:D473E; Brr2 H2-Sec63-2:R1899G (protein)
chain: B1 chain with K456R, D473E, R691G
B8: m21; m1 Prp16p:D473E; Brr2 H2-Sec63-2:L1951P (protein)
chain: B1 chain with K456R, D473E, R691G
B9: m21; m1 Prp16p:Q685H; Brr2 H2-Sec63-2:R1899G (protein)
chain: B1 chain with K456R, Q685H, R691G
B10: m21; m1 Prp16p:R686I; Brr2 H2-Sec63-2:L1951P (protein)
chain: B1 chain with K456R, R686I, R691G
B11: Prp16p (Saccharomyces cerevisiae S288C) (protein)
chain: B1 chain with K456R, R691G
notes: recombinant from E. coli BL21 RIL, NiNTA purified (His-tagged)
B12: recombinant Brr2 Sec63-2p (domain or fragment, budding yeast, UniProt P32639 1846-2160, looked up)
chain: TLSNGLIASHYGVSFFTIQSFVSSLSNTSTLKNMLYVLSTAVEFESVPLRKGDRALLVKLSKRLPLRFPEHTSSGSVSFKVFLLLQAYFSRLELPVDFQNDLKDILEKVVPLINVVVDILSANGYLNATTAMDLAQMLIQGVWDVDNPLRQIPHFNNKILEKCKEINVETVYDIMALEDEERDEILTLTDSQLAQVAAFVNNYPNVELTYSLNNSDSLISGVKQKITIQLTRDVEPENLQVTSEKYPFDKLESWWLVLGEVSKKELYAIKKVTLNKETQQYELEFDTPTSGKHNLTIWCVCDSYLDADKELSFEI
notes: Brr2p, budding yeast, carboxy-terminal Sec63-2 domain; detected with anti-His-HRP antibodies; also called WT Sec63-2p; Brr2 Sec63-2p domain; source: E. coli BL21 RIL, purified (Hi-Trap IMAC HP charged with Ni)
B13: recombinant Brr2 Sec63-2 R1899Gp (domain or fragment, budding yeast, UniProt P32639 1846-2160, looked up)
chain: B12 chain with R54G
notes: Brr2p, budding yeast, carboxy-terminal Sec63-2 domain; also called Sec63-2 R1899G mutant protein; Brr2-R1899G mutant protein; source: E. coli BL21 RIL, purified (Hi-Trap IMAC HP charged with Ni)

Columns and labels:
[1] = target: T1, Ded1p (Saccharomyces cerevisiae, UniProt P06634); experiment: ATPase assay, released Pi; assay type: biochemical; conditions: 5 nM enzyme, 1 mM ATP, 50 ng/μl total yeast RNA, 20 mM Tris-HCl pH 7.5, 50 mM KAc, 1 mM MgOAc, 30°C
T1 construct: gene DED1; recombinant from E. coli BL21 RIL, purified as previously described
T1 sequence (P06634 2-604): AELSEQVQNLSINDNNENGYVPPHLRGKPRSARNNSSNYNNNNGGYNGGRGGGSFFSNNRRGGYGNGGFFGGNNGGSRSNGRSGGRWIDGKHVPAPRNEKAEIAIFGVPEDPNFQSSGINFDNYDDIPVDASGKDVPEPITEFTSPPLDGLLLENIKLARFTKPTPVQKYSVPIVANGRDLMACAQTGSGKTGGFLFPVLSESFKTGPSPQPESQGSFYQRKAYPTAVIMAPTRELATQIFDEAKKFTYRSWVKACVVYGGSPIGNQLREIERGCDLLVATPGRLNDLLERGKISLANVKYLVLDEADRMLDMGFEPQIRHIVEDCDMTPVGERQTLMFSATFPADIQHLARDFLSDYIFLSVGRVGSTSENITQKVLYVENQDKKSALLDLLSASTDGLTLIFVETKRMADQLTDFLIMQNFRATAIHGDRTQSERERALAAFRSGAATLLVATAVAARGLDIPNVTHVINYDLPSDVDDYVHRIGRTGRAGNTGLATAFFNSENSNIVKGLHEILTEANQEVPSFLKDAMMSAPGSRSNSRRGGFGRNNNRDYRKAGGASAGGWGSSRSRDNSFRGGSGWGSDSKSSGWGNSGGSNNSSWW

[2] = target: T2, Prp22p (Saccharomyces cerevisiae, UniProt P24384); experiment: ATPase assay, released Pi; assay type: biochemical; conditions: 1 mM ATP, 50 ng/μl total yeast RNA, 20 mM Tris-HCl pH 7.5, 75 mM KCl, 1 mM MgSO4, 30°C
T2 construct: gene PRP22; recombinant from E. coli BL21 RIL, purified as previously described
T2 sequence (P24384 1-1145): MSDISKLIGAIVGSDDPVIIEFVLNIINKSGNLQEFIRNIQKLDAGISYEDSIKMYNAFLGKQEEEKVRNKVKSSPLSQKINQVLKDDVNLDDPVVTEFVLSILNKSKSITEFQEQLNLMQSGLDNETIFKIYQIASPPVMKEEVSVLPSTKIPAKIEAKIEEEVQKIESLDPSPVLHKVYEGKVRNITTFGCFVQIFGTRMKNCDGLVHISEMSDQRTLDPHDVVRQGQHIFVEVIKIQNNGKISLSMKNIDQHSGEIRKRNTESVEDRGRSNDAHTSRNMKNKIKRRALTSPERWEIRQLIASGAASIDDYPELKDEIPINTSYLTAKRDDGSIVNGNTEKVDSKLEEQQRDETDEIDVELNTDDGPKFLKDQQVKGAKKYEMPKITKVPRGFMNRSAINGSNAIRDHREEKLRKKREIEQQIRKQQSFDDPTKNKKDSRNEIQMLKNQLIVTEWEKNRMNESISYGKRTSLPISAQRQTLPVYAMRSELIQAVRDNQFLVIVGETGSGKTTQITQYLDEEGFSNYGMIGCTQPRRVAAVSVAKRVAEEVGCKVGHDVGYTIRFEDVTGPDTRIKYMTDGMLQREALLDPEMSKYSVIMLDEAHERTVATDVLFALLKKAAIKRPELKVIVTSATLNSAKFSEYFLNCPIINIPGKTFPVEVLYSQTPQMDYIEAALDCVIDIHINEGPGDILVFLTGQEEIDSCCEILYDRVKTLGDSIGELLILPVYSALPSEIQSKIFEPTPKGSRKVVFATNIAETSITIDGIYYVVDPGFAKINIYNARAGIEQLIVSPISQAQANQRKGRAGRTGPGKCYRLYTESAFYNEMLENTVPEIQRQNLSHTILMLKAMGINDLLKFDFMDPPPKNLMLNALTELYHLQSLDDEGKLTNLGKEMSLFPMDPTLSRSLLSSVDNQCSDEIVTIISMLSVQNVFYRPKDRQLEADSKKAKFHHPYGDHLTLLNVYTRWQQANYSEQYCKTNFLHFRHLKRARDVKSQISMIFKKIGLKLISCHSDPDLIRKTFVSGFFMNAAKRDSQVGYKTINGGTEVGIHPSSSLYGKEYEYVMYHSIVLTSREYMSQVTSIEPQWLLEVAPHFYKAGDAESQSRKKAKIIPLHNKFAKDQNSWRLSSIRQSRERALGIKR

[3] = target: Brr2 H2-Sec63-2p R1899G, Gal4AD-prey fusion, P32639; experiment: Y2H interaction assay; conditions: chain shown with the change; growth on -LWH medium with 3-AT; parent: 50.0
Sequence of Brr2 H2-Sec63-2p R1899G, Gal4AD-prey fusion, P32639 (P32639 whole entry R1899G, the tested form may be a part): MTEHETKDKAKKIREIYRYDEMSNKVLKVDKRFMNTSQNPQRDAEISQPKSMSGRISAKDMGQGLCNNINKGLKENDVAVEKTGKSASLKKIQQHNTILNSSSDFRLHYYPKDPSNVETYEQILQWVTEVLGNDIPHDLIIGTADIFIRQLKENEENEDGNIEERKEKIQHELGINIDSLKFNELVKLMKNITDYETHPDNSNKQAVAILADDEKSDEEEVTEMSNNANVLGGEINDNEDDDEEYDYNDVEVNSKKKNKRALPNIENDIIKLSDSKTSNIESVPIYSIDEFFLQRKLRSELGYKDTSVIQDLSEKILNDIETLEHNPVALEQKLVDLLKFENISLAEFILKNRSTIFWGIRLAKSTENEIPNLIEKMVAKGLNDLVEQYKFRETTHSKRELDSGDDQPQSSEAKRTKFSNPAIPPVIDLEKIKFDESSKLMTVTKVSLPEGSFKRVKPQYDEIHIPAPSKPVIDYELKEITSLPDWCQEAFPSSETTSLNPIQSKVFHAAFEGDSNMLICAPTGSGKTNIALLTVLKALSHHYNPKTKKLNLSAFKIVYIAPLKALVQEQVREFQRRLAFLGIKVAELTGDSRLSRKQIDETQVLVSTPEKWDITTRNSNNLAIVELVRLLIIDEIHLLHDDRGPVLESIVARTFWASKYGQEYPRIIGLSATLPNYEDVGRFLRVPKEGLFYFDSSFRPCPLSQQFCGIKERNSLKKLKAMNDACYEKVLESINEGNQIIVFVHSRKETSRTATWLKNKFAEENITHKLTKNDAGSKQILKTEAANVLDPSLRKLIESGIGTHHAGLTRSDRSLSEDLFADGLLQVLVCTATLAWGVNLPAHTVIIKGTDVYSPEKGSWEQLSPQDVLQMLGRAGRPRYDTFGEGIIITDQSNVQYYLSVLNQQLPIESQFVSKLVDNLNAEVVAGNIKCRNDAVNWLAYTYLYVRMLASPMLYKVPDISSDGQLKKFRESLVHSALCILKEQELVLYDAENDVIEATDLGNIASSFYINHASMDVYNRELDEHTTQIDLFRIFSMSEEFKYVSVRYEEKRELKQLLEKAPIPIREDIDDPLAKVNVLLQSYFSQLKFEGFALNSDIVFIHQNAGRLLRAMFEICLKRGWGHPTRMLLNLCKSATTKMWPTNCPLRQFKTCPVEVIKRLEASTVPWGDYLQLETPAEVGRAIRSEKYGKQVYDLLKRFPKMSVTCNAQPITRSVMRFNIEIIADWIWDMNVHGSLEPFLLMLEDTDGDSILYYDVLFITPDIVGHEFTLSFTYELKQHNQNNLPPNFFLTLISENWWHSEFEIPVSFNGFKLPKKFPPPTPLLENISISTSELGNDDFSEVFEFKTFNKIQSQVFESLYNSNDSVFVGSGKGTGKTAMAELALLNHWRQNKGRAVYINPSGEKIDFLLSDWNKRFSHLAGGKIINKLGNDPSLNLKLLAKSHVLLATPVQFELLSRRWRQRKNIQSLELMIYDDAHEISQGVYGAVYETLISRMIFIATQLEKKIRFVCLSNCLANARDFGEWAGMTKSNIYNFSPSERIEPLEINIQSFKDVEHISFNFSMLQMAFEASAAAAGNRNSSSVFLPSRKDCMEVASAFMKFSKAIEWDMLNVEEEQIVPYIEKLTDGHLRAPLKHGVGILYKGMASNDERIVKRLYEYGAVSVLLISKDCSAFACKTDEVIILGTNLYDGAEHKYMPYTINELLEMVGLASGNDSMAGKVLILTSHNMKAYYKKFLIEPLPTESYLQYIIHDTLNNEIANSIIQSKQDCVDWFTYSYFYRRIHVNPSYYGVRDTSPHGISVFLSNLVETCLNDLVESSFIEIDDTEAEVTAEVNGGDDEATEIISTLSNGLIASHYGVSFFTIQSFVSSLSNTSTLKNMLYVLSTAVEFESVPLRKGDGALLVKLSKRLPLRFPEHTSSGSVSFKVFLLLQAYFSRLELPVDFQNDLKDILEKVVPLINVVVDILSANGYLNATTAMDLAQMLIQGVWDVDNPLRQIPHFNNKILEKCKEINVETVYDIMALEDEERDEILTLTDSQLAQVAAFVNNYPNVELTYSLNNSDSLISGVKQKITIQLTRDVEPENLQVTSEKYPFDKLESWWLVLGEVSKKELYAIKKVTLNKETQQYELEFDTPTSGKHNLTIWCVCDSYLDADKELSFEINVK

[4] = target: Brr2 H2-Sec63-2p L1951P, Gal4AD-prey fusion, P32639; experiment: Y2H interaction assay; conditions: chain shown with the change; growth on -LWH medium with 3-AT; parent: 50.0
Sequence of Brr2 H2-Sec63-2p L1951P, Gal4AD-prey fusion, P32639 (P32639 whole entry L1951P, the tested form may be a part): as the sequence (P32639 whole entry R1899G, the tested form may be a part) above, with G1899R, L1951P counted along it

[5] = substrate: Nc1ncnc2c1ncn2[C@@H]1O[C@H](COP(=O)(O)OP(=O)(O)OP(=O)(O)O)[C@@H](O)[C@H]1O; experiment: ATPase assay, released Pi; assay type: biochemical, Saccharomyces cerevisiae; conditions: 10 nM enzyme, 50 ng/μl total yeast RNA, no Sec63-2p, 20 mM Tris-HCl pH 7.5, 75 mM KCl, 1 mM MgSO4, 30°C
Source text: ATPase assay, released Pi on Prp16p

[6] = target: T3, recombinant Prp16p (wild type) (budding yeast, UniProt P15938 1-1071); experiment: cell-based or functional assay
T3 sequence (looked up): B1 chain with K456R, R691G

[7] = target: T3, recombinant Prp16p (wild type); experiment: native gel or EMSA; apparent; Prp16p (300 nM) with 2-nM 32P-labelled 44-nt ssRNA and increasing amounts of Sec63-2p or Sec63-2 R1899Gp; loss of the Prp16p-RNA complex; buffer of the Prp16p ATPase assay without ATP; conditions: both partners purified
[8] = target: T4, Prp16p (UniProt P15938 1-1071); experiment: EMSA; no ATP; 2 nM RNA; EMSA in the Prp16p ATPase assay buffer without ATP (composition, pH and temperature not in the material), 2 nM 5' 32P-labeled RNA; conditions: protein: recombinant; tags: His (pET22b-PRP16-His); label: 5' 32P; single stranded
T4 sequence: B1 chain with K456R, R691G

| Molecule | other: maximal [3AT] tolerated [3] [mM] | other: maximal [3AT] tolerated [4] [µM] | further results |
| --- | --- | --- | --- |
| Nc1ncnc2c1ncn2[C@@H]1O[C@H](COP(=O)(O)OP(=O)(O)OP(=O)(O)O)[C@@H](O)[C@H]1O [ATP] | – | – | ATPase assay, released Pi [1]: no effect of Sec63-2p on the ATPase activities of Ded1p; ATPase assay, released Pi [2]: no effect of Sec63-2p on the ATPase activities of Ded1p |
| B1 | 0 | – | – |
| B2 | – | 0 | – |
| B3 | 75 | – | – |
| B4 | 50 | – | – |
| B5 | – | 200 | – |
| B6 | – | 0 | – |
| B7 | 10 | – | – |
| B8 | – | 0 | – |
| B9 | 100 | – | – |
| B10 | – | 200 | – |
| B11 | – | – | Km [5]: 751 ± 181 µM; kcat [5]: 3.05 ± 0.683 s⁻¹ |
| B12 | – | – | ATPase activity of Prp16p (10 nM) in vitro with increasing molar excess of Sec63-2p, in presence of 50-ng/μl total yeast RNA [6]: 2 fold; Kd (dissociation constant) [7]: 479 ± 2 nM |
| B13 | – | – | Kd (dissociation constant) [7]: 3097 ± 3 nM |
| GGGCGAAUUCAAAACAAAACAAAACUAGCACCGUAAAGCAAGCU (ssRNA) [44-nt ssRNA] | – | – | binding result [8]: binds |
